# Test results: US20200277375A1 (ULTRAHUMAN FOUR, published 2020)
# T1: mouse CD47-Fc (mouse, UniProt Q61735 19-140, limits assumed)
# T1 construct: Recombinant CD47-Fc; also called mCD47-Fc; mCD37-Fc [sic]; not shown: Fc part
# T1 sequence (looked up): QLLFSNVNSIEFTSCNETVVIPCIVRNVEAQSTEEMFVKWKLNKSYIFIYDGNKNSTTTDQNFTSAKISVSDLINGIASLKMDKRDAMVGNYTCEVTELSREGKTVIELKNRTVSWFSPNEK
# Columns and labels:
# [1] = target: T2, human CD47 on cells (human CD47-transfected CHO-K1; HL60) (human, UniProt Q08722 19-323); experiment: flow cytometry, human CD47-transfected CHO-K1, FIG. 6
# T2 construct: whole, on cells; also called human CD47+ cells; human CD47+HL60 cells
# Description: (§1) FIG. 6A-FIG. 6C. Flow cytometric binding to human and cyno CD47+CHO-K1 cells. Commercial anti-CD47 antibody MS1991, human IgG1 (“I IgG1”) and IgG4 (“I IgG4”) Isotype controls, lead library-derived IgGs in both IgG1null (“IgG1N”) and IgG4(S228P) formats were examined for specific binding on cyno-transfected CHO-K1 cells (FIG. 6A), human-transfected CHO-K1 cells (FIG. 6B), and wild type (wt, i.e. untransfected) CHO-K1 cells (FIG. 6C). IgGs were tested at concentrations ranging from 24-100,000 ng/ml. Concentration-dependent binding was observed against both human and cyno cell lines for all CD47-specific antibodies but not Isotype controls.
# (§2) Antibodies to CD47 were analysed for concentration-dependent binding at the cell surface via flow cytometry. CHO-K1 cells were stably transfected with either human, mouse or cyno CD47 full-length cDNAs. Anti-CD47 IgGs mVH/mVL, VH-A1/VL-B1, A-D5, G-B6, F-E7 and D-H3, and an isotype control IgG1 were then all tested in IgG1null and IgG4(S228P) formats, alongside a commercial mouse anti-human CD47 monoclonal MS1991, over a concentration range of 100,000-24 ng/ml for binding to human, cyno or wild type control (‘wt’, i.e. untransfected) CHO-K1.
# [2] = target: T3, cynomolgus monkey CD47-Fc (cynomolgus monkey, UniProt A0A2K5X523 19-139); experiment: direct specificity ELISA, IgG 1 µg/ml, FIG. 5
# T3 construct: Recombinant CD47-Fc; also called cyno CD47-Fc; cCD47-Fc; not shown: Fc part
# Text: (§3) FIG. 5A-FIG. 5G. Binding specificity analyses for prioritized lead clones. Off-target homologue binding risk for mVH/mVL in IgG1 (FIG. 5A) and IgG1null (FIG. 5B) format and library-derived leads A-D5 (FIG. 5C), VH-A1/VL-B1 (FIG. 5D), F-E7 (FIG. 5E), D-H3 (FIG. 5F), and G-B6 (FIG. 5G) in IgG1null format was examined by direct ELISA on CD47-Fc orthologs and a panel of 14 human immunoglobulin superfamily proteins as labelled on each X-axis (“B” refers to blank). Binding to human, cyno and murine CD47-Fcs (h/c/mCD47-Fc) was performed at an IgG concentration of 1 μg/ml. Binding to all other proteins was performed at an IgG concentration of 10 μg/ml.
# (§4) To ensure that that lead clones had not suffered from loss of target specificity during the mutation and reselection process; lead and control IgG1 clones were tested for binding to a panel of 14 purified human proteins from the immunoglobulin superfamily (FIG. 5).
# [3] = target: T4, human CD47-Fc (human, UniProt Q08722 19-139); experiment: direct specificity ELISA, IgG 1 µg/ml, FIG. 5
# T4 construct: Recombinant CD47-Fc; also called hCD47-Fc; not shown: Fc part
# Text: as §3, §4
# [4] = target: T5, cynomolgus monkey CD47 on transfected CHO-K1 cells (cynomolgus monkey, UniProt A0A5F8AK49 19-323 (rhesus entry)); experiment: flow cytometry, cyno CD47-transfected CHO-K1, FIG. 6
# T5 construct: whole, on cells; also called cyno CD47+ cells
# Description: as §1, §2
# [5] = target: T1, mouse CD47-Fc; experiment: direct titration ELISA on coated CD47-Fc, FIG. 3
# Description: FIG. 3A-FIG. 3H. Direct titration ELISA for IgG binding to human, mouse and cyno CD47-Fc proteins. Chimeric anti-CD47 (mVH/mVL), library-derived clones in human IgG1 null format were titrated (in μg/ml) in a direct binding ELISA against human, mouse and cyno CD47-Fc proteins (FIG. 3A-FIG. 3H). […] Clone TTP lost almost all binding function.
# (§5) To coat Greiner Bio-One High bind ELISA plates, target proteins were diluted to 1 μg/ml in carbonate buffer and added at 100 μl per well, at 4° C., o/n. Coated plates were washed 3× with PBS pH7.4, blocked with 1% BSA in PBS (380 μl/well) for 1 hr at RT, then washed 3× with PBS-Tween 20 (PBST). CD47 antibodies (100 μl/well; diluted in PBST) were then added and then incubated 1 hr at RT. Plates were then washed 3× with PBST and goat anti-human kappa chain-HRP added (100 μl/well) at RT, for 1 hr. Plates were then washed 3× with PBST and twice with PBS before the addition of 100 μl TMB per well. Reactions were stopped by adding 100 μl 2M H₂SO₄/well and OD was read on a plate reader at 450 nm.
# [6] = target: T1, mouse CD47-Fc; experiment: direct titration ELISA (FIG. 11) or CD47-SIRPα competition ELISA (FIG. 12)
# Description: as §5
# (§6) A competition ELISA assay was established to examine the capacity of optimized leads to block the binding interaction of CD47 with SIRPα. To coat Greiner Bio-One High bind ELISA plates, 10 μg/ml human SIRPα-Fc in carbonate coating buffer was added at 100 μl per well, at 4° C., o/n. Coated plates were washed 3× with PBS pH7.4, blocked with 1% BSA in PBS (380 μl/well) for 1 hr at RT, then washed 3× with PBS-Tween 20 (PBST). Biotinylated human, mouse or cyno CD47-Fc was then added at 0.2 μg/ml in PBS, 100 μl per well, at room temperature for 60 minutes with or without the addition of competing IgGs. Plates were then washed 3× with PBST and Streptavidin-HRP added (100 μl/well) at room temperature, for 1 hr. Plates were then washed 3× with PBST and twice with PBS before the addition of 100 μl TMB per well. Reactions were stopped by adding 100 μl 2M H₂SO₄/well and OD was read on a plate reader at 450 nm.
# [7] = target: T3, cynomolgus monkey CD47-Fc; experiment: as above
# Description: as §5, §6
# [8] = target: T4, human CD47-Fc; experiment: as above
# Description: as §5, §6
# [9] = target: T1, mouse CD47-Fc; experiment: direct specificity ELISA, IgG 10 µg/ml, FIG. 13
# [10] = target: T3, cynomolgus monkey CD47-Fc; experiment: direct specificity ELISA, IgG 10 µg/ml, FIG. 13
# [11] = target: T4, human CD47-Fc; experiment: direct specificity ELISA, IgG 10 µg/ml, FIG. 13
# [12] = target: T4, human CD47-Fc; experiment: direct titration ELISA, FIG. 18A
# Description: (§7) FIG. 18A-FIG. 18C. Direct titration ELISA for A-D5.16 and A-D5.16-DI designer IgGs binding to human, mouse and cyno CD47-Fc proteins. Chimeric anti-CD47 (mVH/mVL), designer A-D5.16 and A-D5.16-DI clones in human IgG1null format were titrated (in μg/ml) in a direct binding ELISA against human (FIG. 18A), cyno (FIG. 18B) and mouse (FIG. 18C) CD47-Fc proteins.
# as §5
# [13] = target: T1, mouse CD47-Fc; experiment: direct titration ELISA, FIG. 18C
# Description: as §7, §5
# [14] = target: T1, mouse CD47-Fc; experiment: direct specificity ELISA, IgG 1 µg/ml, FIG. 5A
# Text: as §3, §4
binder,measurement,setting,value
"VH-A1/VL-B1 in human IgG1null format (antibody, V domains shown, Combines the two most humanized observed v-domains; IgG1null (L234A/L235A/G237A), kappa; also called VH-A1/VI-B1) VH: EVQLVQSGAEVKKPGESLKISCKGSGYSFTNYYIFWVRQMPGKGLEWMGIINPVDGDTRYSPSFQGQVTISADKSISTAYLQWSSLKASDTAMYYCARGGFTMDYWGQGTLVTVSS VL: not shown","maximum MFI, fold over untransfected CHO-K1",[1],> 10 fold
same,OD450 nm,[2],> 2 OD450 nm
same,OD450 nm,[3],> 2 OD450 nm
same,"maximum MFI, fold over untransfected CHO-K1",[4],> 10 fold
same,binding result,[5],no binding
"A-D5.16 in human IgG1null format (antibody, V domains shown, Designer clone from A-D5.4; IgG1null; also called A-D.16) VH: EVQLVQSGAEVKKPGESLKISCKGSGYSFTNYYIFWVRQMPGKGLEWMGIINPVDGDTRYSPSFQGQVTISADKSISTAYLQWSSLKASDTAMYYCARGGYTMDRWGQGTLVTVSS VL: DIVMTQSPLSLPVTPGEPASISCRSSQSLLHSAGYNYLHWYLQKPGQSPQLLIYKVSNRLSGVPDRFSGSGSGTDFTLKISRVEAEDVGVYYCFQNTHTPRTFGQGTKVEIK",fold reduction in potency versus A-D5 and mVL/mVH,[6],~3 fold
same,fold reduction in potency versus A-D5 and mVL/mVH,[7],~3 fold
same,fold reduction in potency versus A-D5 and mVL/mVH,[8],~3 fold
same,OD450 nm,[9],> 2 OD450 nm
same,OD450 nm,[10],> 2 OD450 nm
same,OD450 nm,[11],> 2 OD450 nm
"A-D5.16-DI in human IgG1null format (antibody, V domains shown, Deimmunised light chain paired with the A-D5.16 VH; IgG1null) VH: EVQLVQSGAEVKKPGESLKISCKGSGYSFTNYYIFWVRQMPGKGLEWMGIINPVDGDTRYSPSFQGQVTISADKSISTAYLQWSSLKASDTAMYYCARGGYTMDRWGQGTLVTVSS VL: DIVMTQSPLSLPVTPGEPASISCRSSQSLLHSAGYNYLHWYLQKPGQSPQLLIYKVSNRFSGVPDRFSGSGSGTDFTLKISRVEAEDAGVYYCFQNTHTPRTFGQGTKVEIK",binding result,[12],binds
same,binding result,[13],binds
"mVH/mVL (chimeric VxP037) in human IgG1 format (antibody, V domains shown, also called mVH/mVL in IgG1) VH: EVQLQQFGAELVKPGASMKLSCKASGYTFTNYYVFWVKQRPGQGLEWIGDINPVNGDTNFNEKFKNKATLTVDKSSTTTYLQLSSLTSEDSAVYYCTRGGYTMDYWGQGTLVTVSS VL: DVVMTQTPLSLSVSLGDQASISCRSSQSLVHSNGNTYLHWYLQKPGQSPKLLIYKVSYRFSGVPDRFSGSGSGTDFTLKISRVEAEDLGVYFCSQNTHVPRTFGQGTKVEIK",binding result,[14],binds
